Target: the molecule itself
Assay: cryo-EM structure

B1: Homo sapiens ferritin (apoferritin) (natural protein, human, UniProt Q8TD27 1-165, looked up)
chain: MTTASTSQVRQNYHQDSEAAINRQINLELYASYVYLSMSYYFDRDDVALKNFAKYFLHQSHEEREHAEKLMKLQNQRGGRIFLQDIKKPDCDDWESGLNAMECALHLEKNVNQSLLEFPSPISPSPSCWHHYTTNRPQPQHHLLRPRRRKRPHSIPTPILIFRSP
B1: binds.

Reference: paper doi:10.1101/2021.03.08.434344 (bioRxiv, 2021)
